Measurements published in publication PMC8479475.

Tests used:
[1] = biological target: Labeled bovine β-cardiac heavy meromyosin (HMM) carrying EDANS- and dabcyl-labeled regulatory light chain (bovine) (UniProt P85100); test: FRET or BRET; time-resolved FRET between EDANS- and dabcyl-labeled RLC (1:3) on the two heads of one HMM dimer; head-head interaction within the molecule (interacting-heads motif), not between HMM molecules; in solution, no cross-linker
[2] = biological target: Labeled bovine β-cardiac heavy meromyosin (HMM) carrying EDANS- and dabcyl-labeled regulatory light chain (bovine) (UniProt P85100); test: FRET or BRET + cross-linking; time-resolved FRET as in a2 after cross-linking: 5 μM HMM in 10 mM MOPS, 30 mM KCl, 2 mM MgATP, 1 mM DTT, pH 7.5, 0.1% glutaraldehyde for 1 min, quenched with 100 mM Tris pH 7.5; head-head interaction within the molecule
[3] = biological target: Labeled bovine β-cardiac heavy meromyosin (HMM) carrying EDANS- and dabcyl-labeled regulatory light chain (bovine) (UniProt P85100); test: FRET or BRET; time-resolved FRET as in a2 with mavacamten (dose-response) and 2 mM magnesium ATP, incubated 10 min; 5 μM labeled HMM; head-head interaction within the molecule

percent of molecules in the interacting-heads motif (head-head interaction within the dimer) [1]: 43% | fraction participating in FRET after glutaraldehyde (head-head interaction within the dimer) [2]: 74% | increase in the population participating in FRET with mavacamten (head-head interaction within the dimer) [3]: 4%
Substance: Labeled bovine β-cardiac heavy meromyosin (HMM) carrying EDANS- and dabcyl-labeled regulatory light chain (from UniProt P85100 1-199; Q3SZE5 1-166) (complex)
